Experimental data taken from the supplement of paper PMC10567573.

B1: SPOPL (parent)
chain: AKREETKAMESQRAYRFVQGKDWG

Variants of: B1
Assay: protein stability index of a GFP-peptide fusion (GPS, HEK-293T) (PSI 1-6); higher = more stable
Details: c terminus: a fixed tail appended
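Further: lentivirally expressed fusions sorted by FACS into six bins by GFP to DsRed ratio, PSI derived from sequencing read proportions per bin multiplied by bin number.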

Protein stability index of substitutions, site by site:
S11: P 2.72, D 4.06, E 3.77, T 2.76, G 2.54, L 2.36, Q 3.58
F17: S 4.19, Q 4.37, G 4.68, P 4.03, V 3.94, H 3.72, T 4.04, D 4.72, E 4.61, W 4.36, K 4.45, I 4.02, Y 4.18, L 3.67, N 4.59, R 4.59, M 3.96, A 4.73, C 4.24
A14: H 3.38, R 3.18, F 3.49, E 3.67, Q 3.25, I 3.8, S 3.3, V 3.42, K 3.98, T 3.63, D 3.1, Y 2.83, P 2.83, W 2.81, G 1.9, L 3.3, N 3.24, C 2.82, M 3.49
T6: L 3.89, G 2.56, P 2.91, I 2.34, M 2.32, W 2.48, R 2.67, K 2.89, H 3.2, C 3.06, E 3.51, D 3.18, S 3.58, Q 3.54, Y 2.46, A 2.48, F 2.32, V 2.29, N 3.34
Y15: E 4.26, D 5.19, G 4, C 2.9, W 3.25, S 4.68, N 4.35, V 3.92, M 3.02, K 4.61, P 4.21, T 4.7, R 4.3, Q 3.89, L 2.51, I 4.26, F 1.39, H 3.98, A 4.14
M9: C 3.58, L 3, V 3.43, Y 2.83, K 3.35, T 3.66, A 3.66, P 3.27, R 3.11, E 3.85, S 3.87, H 3.25, D 3.71, G 3.45, I 3.55, N 3.33, Q 3.69, W 2.74, F 2.79
Q19: A 1.15, C 2.68, S 2.44, K 3.43, P 3.22, D 2.54, T 2.73, W 2.38, E 2.6, H 3.04, Y 2.77, R 3.93, N 2.85, V 2.37, I 2.6, F 3.19, M 2.25, L 2.15
Q12: W 2.4, L 1.82, A 2.63, P 2.97, K 2.94, G 2.76, S 3.4, N 3.35, T 2.78, M 2.39, R 2.61, E 3.65, V 2.06, F 2.13, I 1.99, C 2.55, D 3.85, Y 2.69, H 2.48
V18: N 4.14, A 4.22, T 3.96, G 3.67, Y 3.78, I 2.66, Q 3.16, S 4.19, H 2.84, R 3.99, L 3.51, P 4.07, M 3.42, W 2.43, D 4.05, C 3.51, F 3.32, E 4.15, K 4.13
E5: W 1.75, N 2.76, Y 1.71, P 2.76, Q 2.32, V 3.02, R 2.38, T 2.9, S 2.32
